According to patent US20080280828A1:

Assays:
[1] = molecular target: rat recombinant IgE (Serotech) (rat); experiment: SPR (BIAcore 2000); ratio of RBA on IgE to RBA on guinea pig IgG
[2] = molecular target: guinea pig IgG (Sigma) (guinea pig); experiment: SPR (BIAcore 2000), Ig immobilised on CM5 chip, tick sample as analyte
[3] = molecular target: human IgG Fc fragment (ICN) (human); experiment: as above
[4] = molecular target: rabbit IgG F(ab')2 fragment (ICN) (rabbit); experiment: as above
[5] = molecular target: rat recombinant IgE (Serotech) (rat); experiment: as above
[6] = molecular target: guinea pig IgG (Sigma) (guinea pig); experiment: SPR (BIAcore 2000); RBA further normalised to amount of protein against fSGED6
[7] = molecular target: human IgG Fc fragment (ICN) (human); experiment: as above
[8] = molecular target: rabbit IgG F(ab')2 fragment (ICN) (rabbit); experiment: as above
[9] = molecular target: rat recombinant IgE (Serotech) (rat); experiment: as above
[10] = molecular target: guinea pig IgG (Sigma) (guinea pig); experiment: SPR (BIAcore 2000); normalised to binding of fSGED6 to IgG, corrected for relative molar amount of ligand
[11] = molecular target: human IgG Fc fragment (ICN) (human); experiment: as above
[12] = molecular target: rabbit IgG F(ab')2 fragment (ICN) (rabbit); experiment: as above
[13] = molecular target: rat recombinant IgE (Serotech) (rat); experiment: as above
[14] = molecular target: human IgG Fc fragment (ICN) (human); experiment: SPR (BIAcore 2000); ratio of RBA on Fc to RBA on F(ab')2

Chain of rat recombinant IgE (Serotech) (rat) (P01855 whole entry, the tested form may be a part): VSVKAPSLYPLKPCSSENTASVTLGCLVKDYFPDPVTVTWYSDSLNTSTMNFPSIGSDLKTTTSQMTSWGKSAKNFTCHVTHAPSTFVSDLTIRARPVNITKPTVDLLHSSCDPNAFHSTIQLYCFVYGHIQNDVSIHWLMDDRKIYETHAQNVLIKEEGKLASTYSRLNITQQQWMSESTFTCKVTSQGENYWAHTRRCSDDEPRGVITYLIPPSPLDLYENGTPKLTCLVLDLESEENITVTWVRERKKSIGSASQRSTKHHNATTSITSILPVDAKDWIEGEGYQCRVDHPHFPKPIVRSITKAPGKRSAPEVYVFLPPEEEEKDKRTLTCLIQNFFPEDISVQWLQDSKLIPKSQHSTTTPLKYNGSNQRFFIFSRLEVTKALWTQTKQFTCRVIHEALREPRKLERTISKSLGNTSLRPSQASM

partially fed (day 6) female tick salivary gland extract
RBAIgE/RBAIgG [1]: 1.2
Yield-binding (RU2) [2]: 263 RU
Yield-binding (RU2) [3]: 748 RU
Yield-binding (RU2) [4]: 13 RU
Yield-binding (RU2) [5]: 283 RU
RBA/mg protein [6]: 1
RBA/mg protein [7]: 1.1
RBA/mg protein [8]: 0
RBA/mg protein [9]: 1.3
Relative binding activity (RBA) [10]: 1
Relative binding activity (RBA) [11]: 1.1
Relative binding activity (RBA) [12]: 0
Relative binding activity (RBA) [13]: 1.3

partially fed (day 7), dopamine-stimulated female tick saliva
RBAFc/RBAF(ab′)2 [14]: 1.1
RBAIgE/RBAIgG [1]: 1.2
Yield-binding (RU2) [2]: 5100 RU
Yield-binding (RU2) [3]: 5830 RU
Yield-binding (RU2) [4]: 2770 RU
Yield-binding (RU2) [5]: 4960 RU
RBA/mg protein [6]: 775
RBA/mg protein [7]: 328
RBA/mg protein [8]: 301
RBA/mg protein [9]: 943
Relative binding activity (RBA) [10]: 19.4
Relative binding activity (RBA) [11]: 8.2
Relative binding activity (RBA) [12]: 7.5
Relative binding activity (RBA) [13]: 23.6

partially fed (day 6) male tick salivary gland extract
RBAFc/RBAF(ab′)2 [14]: 1.1
RBAIgE/RBAIgG [1]: 1.2
Yield-binding (RU2) [2]: 719 RU
Yield-binding (RU2) [3]: 1720 RU
Yield-binding (RU2) [4]: 823 RU
Yield-binding (RU2) [5]: 762 RU
RBA/mg protein [6]: 5.5
RBA/mg protein [7]: 4.9
RBA/mg protein [8]: 4.5
RBA/mg protein [9]: 7.3
Relative binding activity (RBA) [10]: 2.7
Relative binding activity (RBA) [11]: 2.4
Relative binding activity (RBA) [12]: 2.2
Relative binding activity (RBA) [13]: 3.6
